Paper PMC6975171, “Deep sequencing of mitochondrial DNA and characterization of a novel POLG mutation in a patient with arPEO”

Columns and labels:
POLγA WT;POLγB = POLγA WT;POLγB (Homo sapiens?;Homo sapiens?, UniProt P54098;Q9UHN1 26-1239;25-485, |); experiment: EMSA; 0.3 mM ddGTP, 3 mM dCTP; 10 fmol DNA in 15 µL; 25 mM Tris-HCl pH 7.8, 1 mM DTT, 0.1 mg/mL BSA, 10% glycerol, 0.3 mM ddGTP, 3 mM dCTP, no added Mg2+ stated; 10 min at ambient temperature; 6% native PAGE in 0.5x TBE; settings: protein: recombinant;recombinant; tags: 6xHis;6xHis; copies: 1;2; label: 32P 5' end of the 21-nt primer (S1); 21 bp duplex, 5' overhang 15 nt on S2 (template strand), recessed primer 3' end
Chain of POLγA WT;POLγB (P54098 26-1239, chain 1 of 2): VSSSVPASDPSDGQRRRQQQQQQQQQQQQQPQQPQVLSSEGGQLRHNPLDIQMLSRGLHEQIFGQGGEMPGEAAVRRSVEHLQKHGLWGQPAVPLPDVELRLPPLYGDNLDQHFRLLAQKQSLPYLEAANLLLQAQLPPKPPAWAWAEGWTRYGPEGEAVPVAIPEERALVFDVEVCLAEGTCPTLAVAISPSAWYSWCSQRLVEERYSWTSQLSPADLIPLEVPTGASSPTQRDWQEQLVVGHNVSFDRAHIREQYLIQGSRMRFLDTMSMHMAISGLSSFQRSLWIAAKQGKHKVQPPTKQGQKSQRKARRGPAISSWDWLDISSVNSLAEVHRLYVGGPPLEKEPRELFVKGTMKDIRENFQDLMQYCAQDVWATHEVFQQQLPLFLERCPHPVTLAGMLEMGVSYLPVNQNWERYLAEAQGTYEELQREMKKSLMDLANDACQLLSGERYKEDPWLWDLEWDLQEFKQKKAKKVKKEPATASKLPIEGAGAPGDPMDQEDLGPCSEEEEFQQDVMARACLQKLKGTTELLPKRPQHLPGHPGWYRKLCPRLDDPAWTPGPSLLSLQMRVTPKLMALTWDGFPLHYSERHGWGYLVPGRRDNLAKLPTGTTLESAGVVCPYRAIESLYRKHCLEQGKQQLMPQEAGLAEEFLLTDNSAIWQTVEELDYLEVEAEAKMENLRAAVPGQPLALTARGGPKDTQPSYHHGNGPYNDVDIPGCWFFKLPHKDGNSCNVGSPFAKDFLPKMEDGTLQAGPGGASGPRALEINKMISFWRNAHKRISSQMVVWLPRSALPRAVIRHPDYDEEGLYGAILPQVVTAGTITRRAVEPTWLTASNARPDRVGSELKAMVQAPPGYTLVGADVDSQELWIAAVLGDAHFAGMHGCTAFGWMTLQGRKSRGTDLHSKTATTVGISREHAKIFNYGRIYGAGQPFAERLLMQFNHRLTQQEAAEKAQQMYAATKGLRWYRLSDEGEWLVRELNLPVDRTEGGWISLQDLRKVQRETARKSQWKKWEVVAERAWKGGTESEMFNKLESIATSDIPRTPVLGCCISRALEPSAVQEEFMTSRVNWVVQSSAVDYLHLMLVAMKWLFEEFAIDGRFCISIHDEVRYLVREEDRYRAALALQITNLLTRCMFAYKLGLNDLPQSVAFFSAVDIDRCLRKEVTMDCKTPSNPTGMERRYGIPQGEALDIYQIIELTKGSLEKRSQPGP
Chain of POLγA WT;POLγB (Q9UHN1 25-485, chain 2 of 2): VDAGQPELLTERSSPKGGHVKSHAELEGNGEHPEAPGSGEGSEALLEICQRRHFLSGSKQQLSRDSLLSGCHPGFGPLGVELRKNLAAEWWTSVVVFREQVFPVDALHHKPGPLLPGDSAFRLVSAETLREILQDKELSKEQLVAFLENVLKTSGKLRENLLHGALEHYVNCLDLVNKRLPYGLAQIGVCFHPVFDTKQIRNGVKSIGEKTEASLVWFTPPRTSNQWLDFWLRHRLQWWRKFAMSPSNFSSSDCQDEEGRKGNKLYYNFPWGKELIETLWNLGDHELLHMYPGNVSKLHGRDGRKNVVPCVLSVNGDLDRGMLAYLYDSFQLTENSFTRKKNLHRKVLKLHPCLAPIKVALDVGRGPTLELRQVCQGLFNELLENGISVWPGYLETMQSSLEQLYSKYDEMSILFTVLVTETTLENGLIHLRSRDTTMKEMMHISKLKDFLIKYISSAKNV

POLγA F197S;POLγB = POLγA F197S;POLγB (Homo sapiens?;Homo sapiens?, UniProt P54098;Q9UHN1 26-1239;25-485, F197S|); experiment: as above; settings: protein: recombinant;recombinant; tags: 6xHis;6xHis; copies: 1;2; label: 32P 5' end of the 21-nt primer (S1); 21 bp duplex, 5' overhang 15 nt on S2 (template strand), recessed primer 3' end
Chain of POLγA F197S;POLγB (P54098 26-1239 F197S, chain 1 of 2): as the sequence (P54098 26-1239, chain 1 of 2) above, with F172S counted along it
Chain of POLγA F197S;POLγB (Q9UHN1 25-485, chain 2 of 2): as the sequence (Q9UHN1 25-485, chain 2 of 2) above

B1: 21/36-nt primed template (dsDNA)
DNA 1: GCGGTCGAGTCTAGAGGAGCC
DNA 2: GACTACGTCTATCCGGGCTCCTCTAGACTCGACCGC
B1: binds (POLγA WT;POLγB); binds (POLγA F197S;POLγB).
